Results published in PMC5382584, “In search of tail-anchored protein machinery in plants: reevaluating the role of arsenite transporters” (Scientific Reports, 2017).
Several values for one entry are separate records, joined by “and”; a condition that tells them apart may be missing. Equal entries are not always repeated.

Target: the molecule itself
Assay: SEC; preparative size-exclusion chromatography of the purified protein, Superdex-200-16/600GL column; oligomeric state from peak positions

B1: Cr-ArsA2 (C. reinhardtii ArsA2), recombinant, purified (natural protein, UniProt A8IXB8 1-362, looked up)
chain: MAADMPDPTLQNVVDQKELKWIFVGGKGGVGKTTTSSSLAVALAESGTRNRVLIISTDPAHNLSDAFRQKFTKTPTLVNGFTNLFAMEVDPQPDIGEMEQLEWAQDSFLTELAGSIPGIDEAMSFAEVMKQVQTMDYDTIVFDTAPTGHTLRLLNFPTILEKGLSKLVALKGAMGGMMGQVTRMLGGMAGGGEGAADLPDQLLGKVEGMLDVVRKVSAQFKDPLLTTFVAVCIPEFLSLYETERLVQELAKFEIDCRNIVINQIIFPESVGGSRLLDARVRMQQKYLDQFYELYEDFHILQLPLLEEEVRGPEALKAFAVNLLKPYVPAPPTDAAARQAALVSEVAALKKRVAELEAALAKK
notes: ArsA2 of Chlamydomonas reinhardtii, full-length open reading frame, one ATPase domain; pET21 modified with a TEV site between the N-terminal 6His-tag and the polylinker; Seen as dimers and tetramers; also called Dimeric Cr-ArsA2; arsenite transporter ArsA2; source: E. coli BL21 (DE3), purified (Ni-NTA, size-exclusion chromatography)
- stoichiometry N: 2 and 4
